Biological target: CXCR4 (human (endogenous in CEM)) (UniProt P61073)
Test: radioligand binding; competition: 0.25 nM 125I-CXCL12α and a range of concentrations of unlabelled CXCL12 (α, γ or γ-m1) on CEM cells (10^7 cells/ml), 100 µl PBS, 1 h, 4°C; cell-associated radioactivity counted

UniProt P61073, sequence (P61073 whole entry): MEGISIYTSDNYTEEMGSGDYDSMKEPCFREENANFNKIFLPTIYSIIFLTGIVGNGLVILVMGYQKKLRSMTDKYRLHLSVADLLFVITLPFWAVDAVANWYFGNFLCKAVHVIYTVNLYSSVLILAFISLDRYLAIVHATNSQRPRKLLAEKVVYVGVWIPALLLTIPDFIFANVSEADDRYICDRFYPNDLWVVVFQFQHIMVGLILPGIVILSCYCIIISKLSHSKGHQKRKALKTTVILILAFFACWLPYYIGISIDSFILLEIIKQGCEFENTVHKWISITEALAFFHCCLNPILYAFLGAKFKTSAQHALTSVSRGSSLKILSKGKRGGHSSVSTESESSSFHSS

- IC50: 350 nM
Substance: CXCL12γ (ligand)

From article PMC2040504
